In paper PMC4881466:

Target: Lys69 (UniProt position 69, KALAVKVFKMT)
Assay: UV-vis
Conditions: not stated (100 mM buffers); 100 mM sodium phosphate/citrate (pH 4-6), sodium phosphate (pH 6.2-8.6), sodium carbonate (pH > 8.6); ferrous-deoxy, no exogenous ligand

## Non-symbiotic hemoglobin 2 (AHb2) H66L mutant (Arabidopsis thaliana; H66L)
  pKa: 10 ± 0.2
